Assay results: patent US7223734B2, “Plasma protein-binding ligands” (The American National Red Cross, priority 2002, dated 2007)
Non-standard residues stand in square brackets, D forms with d. No end group written: not given here.

Columns and labels:
Format in all cases: binding
[1] = molecular target: T1, Apo-A1 lipoprotein (Homo sapiens, UniProt P02647); test: Apo-A1 lipoprotein purification from fibrinogen-depleted plasma on peptide resin column (Example 4); details: for removal / depletion of Apo-A1 lipoprotein in flow-through: fibrinogen-depleted plasma, 14 ml on 2.3 ml resin, SDS-PAGE
T1 construct: from tissue; host or cells: human plasma (whole or fibrinogen-depleted)
Procedure: (§1) Apo-A1 lipoprotein purification was accomplished with D-WWLHIN (SEQ ID NO: 33) peptides and several analogs. Indeed, about 100% Apo-A1 lipoprotein depletion from plasma was repeatedly obtained with D-WWLHAN (SEQ ID NO: 56) and D-WWLHIN (SEQ ID NO: […]). Fourteen milliliters of fibrinogen-depleted plasma was loaded onto a 2.3 ml column (CF=0.785 cm^2) at 0.4 ml/min. (LV=30 cm/H; RT=5.8) that had been equilibrated with 0.14 M NaCl, 0.020 M sodium citrate, pH 7.0 (EQ buffer). After the column was washed with EQ buffer to baseline, Apo-A1 lipoprotein was eluted with 2.0 M NaCl, 1% Tween-20, 0.020M sodium citrate, pH 7.0. The column was regenerated with 2.0 M guanidine-HCl, 2% Sarkosyl, and 2% acetic acid and stored in 20% methanol.

[2] = molecular target: T2, API (Homo sapiens, UniProt P01009); test: API recovery in Apo-A1 purification run (Example 4); details: load 10.6 mg
T2 construct: from tissue; host or cells: human plasma (whole, fibrinogen-depleted or F1-Apo-depleted)
Procedure: as §1

[3] = molecular target: T3, albumin (Homo sapiens, UniProt P02768); test: Albumin recovery in Apo-A1 purification run (Example 4); details: load 372 mg
T3 construct: from tissue; host or cells: human plasma (fibrinogen-depleted or F1-Apo-depleted)
Procedure: as §1

T1 sequence (P02647 25-267 limits assumed): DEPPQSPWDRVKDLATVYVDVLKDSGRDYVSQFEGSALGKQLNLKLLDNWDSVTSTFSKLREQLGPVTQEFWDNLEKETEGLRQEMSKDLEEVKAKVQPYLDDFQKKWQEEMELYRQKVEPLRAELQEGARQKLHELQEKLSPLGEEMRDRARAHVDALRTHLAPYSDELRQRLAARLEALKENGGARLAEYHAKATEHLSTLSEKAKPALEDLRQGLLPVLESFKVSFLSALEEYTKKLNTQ
T2 sequence (P01009 25-418): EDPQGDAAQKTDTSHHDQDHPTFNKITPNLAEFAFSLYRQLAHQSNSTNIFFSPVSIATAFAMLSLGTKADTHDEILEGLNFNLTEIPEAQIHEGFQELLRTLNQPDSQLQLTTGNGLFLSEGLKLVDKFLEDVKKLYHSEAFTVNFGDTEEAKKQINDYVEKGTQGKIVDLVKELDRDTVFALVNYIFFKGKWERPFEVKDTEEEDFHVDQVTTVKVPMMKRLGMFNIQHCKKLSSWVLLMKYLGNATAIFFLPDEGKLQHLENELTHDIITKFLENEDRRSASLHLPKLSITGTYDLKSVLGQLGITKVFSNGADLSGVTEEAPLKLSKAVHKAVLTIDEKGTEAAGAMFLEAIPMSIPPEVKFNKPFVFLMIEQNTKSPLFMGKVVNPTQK

With “WFLHIN ([dW]FLHIN; not fully specified (residues 2, 3, 4, 5, 6)) [D-WFLHIN]” the “Apo-A1 Elution” value ([1]; 2.0 M NaCl, 1% Tween-20 eluate, load 12.9 mg) was 9.1 mg, the “removal / depletion of Apo-A1 lipoprotein in flow-through” value [1] was “Complete Apo-A1 lipoprotein depletion” and the “removal / depletion of Apo-A1 lipoprotein in flow-through” value ([1]; listed as WFLHIN) was “complete removal”. For the same substance, the “API Flow Through” value [2] was 12.5 mg and the “Albumin Flow Through” value [3] was 386 mg.
